Results: doi:10.1101/511394
Like-named read-outs stand apart in the source and are kept apart here.

T1: ZHX1 (UniProt Q9UKY1 55-830)
T1 sequence: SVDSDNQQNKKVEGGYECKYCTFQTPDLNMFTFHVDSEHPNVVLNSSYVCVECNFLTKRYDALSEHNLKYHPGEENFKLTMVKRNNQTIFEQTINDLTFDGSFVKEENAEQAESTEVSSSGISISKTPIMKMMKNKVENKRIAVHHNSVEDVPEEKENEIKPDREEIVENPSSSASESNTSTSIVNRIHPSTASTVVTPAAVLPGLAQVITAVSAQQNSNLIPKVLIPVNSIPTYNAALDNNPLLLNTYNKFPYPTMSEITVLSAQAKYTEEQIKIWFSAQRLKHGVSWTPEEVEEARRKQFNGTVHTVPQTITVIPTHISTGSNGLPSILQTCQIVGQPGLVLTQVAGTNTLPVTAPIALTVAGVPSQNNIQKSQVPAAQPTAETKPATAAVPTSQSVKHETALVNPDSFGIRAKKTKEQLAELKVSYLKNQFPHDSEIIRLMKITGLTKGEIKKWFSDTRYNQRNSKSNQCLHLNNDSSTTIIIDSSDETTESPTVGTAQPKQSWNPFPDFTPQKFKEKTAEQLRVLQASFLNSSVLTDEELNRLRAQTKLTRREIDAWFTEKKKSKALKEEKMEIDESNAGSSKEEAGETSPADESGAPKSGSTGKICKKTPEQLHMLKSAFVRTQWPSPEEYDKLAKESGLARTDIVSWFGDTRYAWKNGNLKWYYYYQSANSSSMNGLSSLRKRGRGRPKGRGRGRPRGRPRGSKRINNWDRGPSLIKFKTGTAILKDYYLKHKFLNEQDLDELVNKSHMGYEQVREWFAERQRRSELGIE

T2: WDR76 (FLAG-HA, insect cell) (Homo sapiens, UniProt Q9H967 1-626)
T2 sequence: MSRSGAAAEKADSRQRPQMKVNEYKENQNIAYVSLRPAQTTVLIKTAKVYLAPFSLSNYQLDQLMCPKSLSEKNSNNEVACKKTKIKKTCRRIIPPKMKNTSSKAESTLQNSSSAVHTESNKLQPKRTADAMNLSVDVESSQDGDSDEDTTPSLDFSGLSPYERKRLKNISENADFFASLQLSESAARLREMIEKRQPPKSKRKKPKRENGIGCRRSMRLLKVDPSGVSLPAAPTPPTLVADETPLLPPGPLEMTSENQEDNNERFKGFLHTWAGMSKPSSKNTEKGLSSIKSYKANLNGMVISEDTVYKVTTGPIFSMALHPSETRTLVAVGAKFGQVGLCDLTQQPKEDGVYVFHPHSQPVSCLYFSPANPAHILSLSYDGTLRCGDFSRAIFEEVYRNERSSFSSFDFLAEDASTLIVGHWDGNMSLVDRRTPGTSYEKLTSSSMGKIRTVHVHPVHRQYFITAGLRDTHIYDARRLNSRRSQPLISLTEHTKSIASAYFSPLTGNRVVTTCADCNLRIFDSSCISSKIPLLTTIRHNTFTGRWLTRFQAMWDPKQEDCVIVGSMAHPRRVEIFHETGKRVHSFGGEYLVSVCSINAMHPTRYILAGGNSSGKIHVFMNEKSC

T3: WDR76 (FLAG-HA, HEK293 purified) (Homo sapiens, UniProt Q9H967 1-626)
T3 sequence: T2 sequence

T4: C3ORF37/HMCES full-length (UniProt Q96FZ2 1-354)
T4 sequence: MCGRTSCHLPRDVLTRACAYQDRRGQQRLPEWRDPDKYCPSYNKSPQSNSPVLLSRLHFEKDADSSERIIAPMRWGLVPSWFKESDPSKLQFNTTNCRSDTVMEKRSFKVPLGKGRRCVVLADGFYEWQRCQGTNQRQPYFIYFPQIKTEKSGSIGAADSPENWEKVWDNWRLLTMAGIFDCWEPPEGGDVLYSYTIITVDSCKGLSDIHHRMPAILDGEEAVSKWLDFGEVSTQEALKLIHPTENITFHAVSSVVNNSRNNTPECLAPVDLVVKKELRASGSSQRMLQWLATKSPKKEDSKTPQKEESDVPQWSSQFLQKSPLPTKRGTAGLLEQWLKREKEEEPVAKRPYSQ

T5: WDR76 NTD (Homo sapiens, UniProt Q9H967 1-151)
T5 sequence: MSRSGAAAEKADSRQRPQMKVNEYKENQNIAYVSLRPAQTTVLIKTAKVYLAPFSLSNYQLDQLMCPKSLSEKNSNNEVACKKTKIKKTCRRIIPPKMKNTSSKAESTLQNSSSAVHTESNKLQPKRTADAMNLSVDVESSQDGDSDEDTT

B1: mC/mC duplex (dsDNA)
DNA 1: GCGGCTGCGTGGGTCC
DNA 2: GGACCCACGCAGCCGC
modifications: 5-methylcytosine at central CpG C8 of both strands
B2: fC/fC duplex (dsDNA)
DNA 1: GCGGCTGCGTGGGTCC
DNA 2: GGACCCACGCAGCCGC
modifications: 5-formylcytosine at central CpG C8 of both strands
B3: C/C duplex (dsDNA)
DNA 1: GCGGCTGCGTGGGTCC
DNA 2: GGACCCACGCAGCCGC
B4: hmC/C duplex (dsDNA)
DNA 1: GCGGCTGCGTGGGTCC
DNA 2: GGACCCACGCAGCCGC
modifications: 5-hydroxymethylcytosine at central CpG of one strand (strand not stated), C on the other
B5: hmC/hmC duplex (dsDNA)
DNA 1: GCGGCTGCGTGGGTCC
DNA 2: GGACCCACGCAGCCGC
modifications: 5-hydroxymethylcytosine at central CpG C8 of both strands

Tests used:
ZHX1 = biological target: T1, ZHX1; assay: EMSA
[1] = biological target: T2, WDR76 (FLAG-HA, insect cell); assay: EMSA
[2] = biological target: T3, WDR76 (FLAG-HA, HEK293 purified); assay: EMSA
[3] = biological target: T4, C3ORF37/HMCES full-length; assay: filter binding
WDR76 NTD = biological target: T5, WDR76 NTD; assay: filter binding
[4] = biological target: T2, WDR76 (FLAG-HA, insect cell); assay: EMSA; remark: listed apart in the source

Row | Binder | binding result (ZHX1) | binding result [2] | other results
1 | B1 | no binding | – | –
2 | B2 | no binding | no binding | binding result [1]: no binding
3 | B3 | no binding | – | binding result [3]: no binding
4 | B4 | – | – | binding result (WDR76 NTD): binds
5 | B5 | no binding | binds | binding result [4]: binds
